B1: Human TRPA1 (N-terminal-tagged MBP-TRPA1), unmodified (apo or with the antagonist A-967079) (natural protein)
chain: MKRSLRKMWRPGEKKEPQGVVYEDVPDDTEDFKESLKVVFEGSAYGLQNFNKQKKLKRCDDMDTFFLHYAAAEGQIELMEKITRDSSLEVLHEMDDYGNTPLHCAVEKNQIESVKFLLSRGANPNLRNFNMMAPLHIAVQGMNNEVMKVLLEHRTIDVNLEGENGNTAVIIACTTNNSEALQILLKKGAKPCKSNKWGCFPIHQAAFSGSKECMEIILRFGEEHGYSRQLHINFMNNGKATPLHLAVQNGDLEMIKMCLDNGAQIDPVEKGRCTAIHFAATQGATEIVKLMISSYSGSVDIVNTTDGCHETMLHRASLFDHHELADYLISVGADINKIDSEGRSPLILATASASWNIVNLLLSKGAQVDIKDNFGRNFLHLTVQQPYGLKNLRPEFMQMQQIKELVMDEDNDGCTPLHYACRQGGPGSVNNLLGFNVSIHSKSKDKKSPLHFAASYGRINTCQRLLQDISDTRLLNEGDLHGMTPLHLAAKNGHDKVVQLLLKKGALFLSDHNGWTALHHASMGGYTQTMKVILDTNLKCTDRLDEDGNTALHFAAREGHAKAVALLLSHNADIVLNKQQASFLHLALHNKRKEVVLTIIRSKRWDECLKIFSHNSPGNKCPITEMIEYLPECMKVLLDFCMLHSTEDKSCRDYYIEYNFKYLQCPLEFTKKTPTQDVIYEPLTALNAMVQNNRIELLNHPVCKEYLLMKWLAYGFRAHMMNLGSYCLGLIPMTILVVNIKPGMAFNSTGIINETSDHSEILDTTNSYLIKTCMILVFLSSIFGYCKEAGQIFQQKRNYFMDISNVLEWIIYTTGIIFVLPLFVEIPAHLQWQCGAIAVYFYWMNFLLYLQRFENCGIFIVMLEVILKTLLRSTVVFIFLLLAFGLSFYILLNLQDPFSSPLLSIIQTFSMMLGDINYRESFLEPYLRNELAHPVLSFAQLVSFTIFVPIVLMNLLIGLAVGDIAEVQKHASLKRIAMQVELHTSLEKKLPLWFLRKVDQKSTIVYPNKPRSGGMLFHIFCFLFCTGEIRQEIPNADKSLEMEILKQKYRLKDLTFLLEKQHELIKLIIQKMEIISETEDDDSHCSFQDRFKKEQMEQRNSRWNTVLRAVKAKTHHLEP
B2: Human TRPA1 (MBP-TRPA1) modified with iodoacetamide (IA), activated state (natural protein)
chain: B1 chain
modifications: iodoacetamide covalent adduct at Cys621; weaker density at Cys665, which may reflect partial modification
B3: Human TRPA1 (MBP-TRPA1) modified with BODIPY-iodoacetamide (BIA) (natural protein)
chain: KRSLRKMWRPGEKKEPQGVVYEDVPDDTEDFKESLKVVFEGSAYGLQNFNKQKKLKRCDDMDTFFLHYAAAEGQIELMEKITRDSSLEVLHEMDDYGNTPLHCAVEKNQIESVKFLLSRGANPNLRNFNMMAPLHIAVQGMNNEVMKVLLEHRTIDVNLEGENGNTAVIIACTTNNSEALQILLKKGAKPCKSNKWGCFPIHQAAFSGSKECMEIILRFGEEHGYSRQLHINFMNNGKATPLHLAVQNGDLEMIKMCLDNGAQIDPVEKGRCTAIHFAATQGATEIVKLMISSYSGSVDIVNTTDGCHETMLHRASLFDHHELADYLISVGADINKIDSEGRSPLILATASASWNIVNLLLSKGAQVDIKDNFGRNFLHLTVQQPYGLKNLRPEFMQMQQIKELVMDEDNDGCTPLHYACRQGGPGSVNNLLGFNVSIHSKSKDKKSPLHFAASYGRINTCQRLLQDISDTRLLNEGDLHGMTPLHLAAKNGHDKVVQLLLKKGALFLSDHNGWTALHHASMGGYTQTMKVILDTNLKCTDRLDEDGNTALHFAAREGHAKAVALLLSHNADIVLNKQQASFLHLALHNKRKEVVLTIIRSKRWDECLKIFSHNSPGNKCPITEMIEYLPECMKVLLDFCMLHSTEDKSCRDYYIEYNFKYLQCPLEFTKKTPTQDVIYEPLTALNAMVQNNRIELLNHPVCKEYLLMKWLAYGFRAHMMNLGSYCLGLIPMTILVVNIKPGMAFNSTGIINETSDHSEILDTTNSYLIKTCMILVFLSSIFGYCKEAGQIFQQKRNYFMDISNVLEWIIYTTGIIFVLPLFVEIPAHLQWQCGAIAVYFYWMNFLLYLQRFENCGIFIVMLEVILKTLLRSTVVFIFLLLAFGLSFYILLNLQDPFSSPLLSIIQTFSMMLGDINYRESFLEPYLRNELAHPVLSFAQLVSFTIFVPIVLMNLLIGLAVGDIAEVQKHASLKRIAMQVELHTSLEKKLPLWFLRKVDQKSTIVYPNKPRSGGMLFHIFCFLFCTGEIRQEIPNADKSLEMEILKQKYRLKDLTFLLEKQHELIKLIIQKMEIISETEDDDSHCSFQDRFKKEQMEQRNSRWNTVLRAVKAKTHHLEP
modifications: BODIPY-IA (BIA) covalent adduct at Cys621

Target: the molecule itself
Experiment: cryo-EM structure

Binding result, binds:
B1
B2
B3
